Reference: patent US20260193348A1 (ANTENGENE BIOLOGICS, published 2026)
Substitutions are numbered along the chain they refer to. Names may count otherwise.

T1: CD20 on DoHH2 cells (human, UniProt P11836 1-297)
T1 construct: whole, on cells; Endogenous CD20 on the human DoHH2 cell line; also called DoHH2 cells expressing CD20
T1 sequence (looked up): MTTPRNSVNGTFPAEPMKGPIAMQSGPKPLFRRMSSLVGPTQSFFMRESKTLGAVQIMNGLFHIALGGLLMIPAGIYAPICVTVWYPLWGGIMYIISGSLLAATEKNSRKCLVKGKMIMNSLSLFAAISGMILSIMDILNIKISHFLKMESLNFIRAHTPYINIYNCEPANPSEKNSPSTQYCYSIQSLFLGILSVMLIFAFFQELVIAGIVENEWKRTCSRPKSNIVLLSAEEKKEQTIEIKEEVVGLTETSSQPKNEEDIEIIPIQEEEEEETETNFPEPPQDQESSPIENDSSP

B1: ATG-Bis-40E9 (bispecific antibody)
heavy: EVQLQQSGPELVKPGASVKMSCKASGYTFTSYVIHWVKQKTGQGLEWIGYFNPYNDGTKYNEEFKGKATLTSDKSSNTAYMELNSLTSDDSAVYFCARGGVRRYFDVWGAGTTVTVSS
heavy (part 1 of 2): B1 heavy
heavy (part 2 of 2): GGGGSGGGGSEVQLQLSGPELVKPGASVKMSCKASGYTFSSYVIHWVKQKPGQGLEWIGYINPYNDVIKYNEKFKGKATLTSDKSSSTAYMELSSLTSEDSAVYYCARDSYYSYDGFAYWGQGTLVTVSAGGGGSGGGGSGGGGSGGGGSQIVLTQSPAIMSASPGEKVTMTCSASSSVSYMHWYQQKSGTSPKRWIYDTSKLASGVPARFSGSGSGTSYSLTISSMEAEDAATYYCQQWSSNPPTFGGGTKVEIKGGGGSGGGGS
light: DIQMTQSPSSLSASLGERVSLTCRASQDIGSNLNWLQQEPDGTIKRLIYATFGLDSGVPKRFSGSRSGSDYSLTISSLESEDFVDYYCQQYASFPYTFGGGTKLEIK
notes: Fab-scFv-Fab format: two anti-GPRC5D Fab domains and one anti-CD3 scFv; LALA mutations; also called chimeric 2+1 bispecific antibody; parental antibody control; not shown: CH1; CL; CH1-hinge-CH2-CH3 with L234A, L235A; CH2-CH3 with L234A, L235A
B2: ATG201-Y101F-20R (bispecific antibody, human IgG1, kappa, L234A L235A)
heavy 1: not shown
heavy 2: QVQLQQPGAELVKPGASVKMSCKASGYTFTSYNMHWVKQTPGRGLEWIGAIYPGNGDTSYNQKFKGKATLTADKSSSTAYMQLSSLTSEDSAVYYCARSTYYGGDWYFNVWGAGTTVTVSAASTKGPSVFPLAPSSKSTSGGTAALGCLVKDYFPEPVTVSWNSGALTSGVHTFPAVLQSSGLYSLSSVVTVPSSSLGTQTYICNVNHKPSNTKVDKKVEPKSCGGGGSGGGGSEVQLVQSGAEVKKPGSSVKVSCKASGYTFSSYVIHWVRQAPGQCLEWMGYINPYNDVIKYNEKFKGRVTLTSDKSTSTAYMELSSLRSEDTAVYYCARDSFYSYDGFAYWGQGTLVTVSSGGGGSGGGGSGGGGSGGGGSEIVLTQSPDFQSVTPKEKVTITCSASSSVSYMHWYQQKPDQSPKRLIYDTSKLASGVPSRFSGSGSGTDFTLTINSLEAEDAATYYCQQWSSNPPTFGCGTKVEIKGGGGSGGGGSDKTHTCPPCPAPEAAGGPSVFLFPPKPKDTLMISRTPEVTCVVVDVSHEDPEVKFNWYVDGVEVHNAKTKPREEQYNSTYRVVSVLTVLHQDWLNGKEYKCKVSNKALPAPIEKTISKAKGQPREPQVCTLPPSREEMTKNQVSLSCAVKGFYPSDIAVEWESNGQPENNYKTTPPVLDSDGSFFLVSKLTVDKSRWQQGNVFSCSVMHEALHNHYTQKSLSLSPGK
light: QIVLSQSPAILSASPGEKVTMTCRASSSVSYIHWFQQKPGSSPKPWIYATSNLASGVPVRFSGSGSGTSYSLTISRVEAEDAATYYCQQWTSNPPTFGGGTKLEIKRTVAAPSVFIFPPSDEQLKSGTASVVCLLNNFYPREAKVQWKVDNALQSGNSQESVTEQDSKDSTYSLSSTLTLSKADYEKHKVYACEVTHQGLSSPVTKSFNRGEC
notes: CD20xCD3 Fab-scFv-Fab: two C20R Fabs, anti-CD3 scFv 40E9-L2H3-Y101F.H; L234A/L235A
B3: ATG201-N55S-20R (bispecific antibody, human IgG1, kappa, L234A L235A)
heavy 1: not shown
heavy 2: B2 heavy 2 with N289S, F335Y
light: B2 light
notes: CD20xCD3 Fab-scFv-Fab: two C20R Fabs, anti-CD3 scFv 40E9-L2H3-N55S.H; L234A/L235A

Assays:
GPRC5D on MM.1S cells [1] = target: T2, GPRC5D on MM.1S cells (human, UniProt Q9NZD1 1-345); test: cell-based or functional assay
CD3 on Jurkat cells [2] = target: T3, CD3 on Jurkat cells (UniProt P07766 23-207; P04234 22-171; P09693 23-182); test: FACS on Jurkat cells
T3 construct: whole, on cells; On the cell, CD3 stands in the TCR-CD3 complex; also called cluster of differentiation 3
Description: (§1) The binding affinities of the generated humanized Fab-scFv-Fab bispecific antibodies were determined by FACS analysis. […] (a) Jurkat cells were washed by Staining Buffer (PBS+1% BSA) in round bottom 96-well plate. [0833] (b) Antibody dilutions and cells were added to each well, incubated at 4 degrees for 1 hour. [0834] (c) Cells were spined down at 300 g for 3 minutes, and the supernatants were discarded. [0835] (d) Cells were washed with Staining Buffer. […] (e) Step (d) was repeated and the cells were incubated for 0.5 hours at 4 degrees with secondary antibody in Staining Buffer. [0837] (f) After incubation, step (d)-(e) were repeated. […] (g) Staining Buffer was added and fluorescence signals were recorded by flow cytometry.
The binding affinities of the generated humanized Fab-scFv-Fab bispecific antibodies were determined by FACS analysis. The ATG-Bis-40E9 described in Example 1 was used as positive control and hIgG1 isotype was used as negative control. The protocol for FACS analysis is described in Example 3.2 above.

GPRC5D on MM.1S cells [3] = target: T2, GPRC5D on MM.1S cells; test: cell-based or functional assay; remark: listed apart in the source
GPRC5D on MM.1S cells [4] = target: T2, GPRC5D on MM.1S cells; test: FACS on MM.1S cells
GPRC5D on MM.1S cells [5] = target: T2, GPRC5D on MM.1S cells; test: cell-based or functional assay; remark: listed apart in the source
GPRC5D on MM.1S cells [6] = target: T2, GPRC5D on MM.1S cells; test: cell-based or functional assay; remark: listed apart in the source
CD3 on Jurkat cells [7] = target: T3, CD3 on Jurkat cells; test: FACS on Jurkat cells; remark: listed apart in the source
Description: as §1
The binding affinities of the generated humanized Fab-scFv-Fab bispecific antibodies were determined by FACS analysis. The protocol for FACS analysis is identical to that described in Example 3.2, except that different test antibodies were used.

GPRC5D on MM.1S cells [8] = target: T2, GPRC5D on MM.1S cells; test: FACS on MM.1S cells; remark: listed apart in the source
Description: To evaluate the binding affinity of the generated chimeric bispecific antibody to T cells, the isolated CD3⁺ T cells were stained by antibodies and the binding affinity was determined by FACS analysis. The protocol of FACS analysis is described as follows: [0785] (a) CD3⁺ T cells were isolated from normal donors. [0786] (b) The isolated CD3⁺ T cells were washed by Staining Buffer (PBS+1% BSA) in round bottom 96-well plate. […] (c) Antibody dilutions were added to each well and mixed with the CD3+ T cells, incubated at 4 degrees for 1 hour. […] (d) Cells were spined at 300 g for 3 minutes, then the supernatants were discarded. [0789] (e) Cells were washed with Staining Buffer. [0790] (f) Step (d) was repeated, and the cells were incubated with secondary antibody in Staining Buffer for 0.5 hours at 4 degrees. [0791] (g) After incubation, step (d)-(e) were repeated. [0792] (h) Cells were resuspended in Staining Buffer and fluorescence signals were recorded by flow cytometry.
The binding affinities of the generated humanized Fab-scFv-Fab bispecific antibodies to MM.1S were evaluated by FACS analysis. The protocol for FACS analysis is identical to that described in Example 1.2, except that MM.1S were used in this example.

CD20 on DoHH2 cells = target: T1, CD20 on DoHH2 cells; test: FACS on DoHH2 cells expressing CD20 (FIG. 45E)
[9] = target: T4, CD3 on T cells / Jurkat cells (human, UniProt P07766 23-207; P04234 22-171; P09693 23-182); test: FACS on Jurkat cells expressing CD3
T4 construct: whole, on cells; Native CD3 complex on CD3+ T cells isolated from normal donors or on Jurkat cells; also called human CD3; CD3+ T cells
T4 sequence (P07766 23-207, chain 1 of 3): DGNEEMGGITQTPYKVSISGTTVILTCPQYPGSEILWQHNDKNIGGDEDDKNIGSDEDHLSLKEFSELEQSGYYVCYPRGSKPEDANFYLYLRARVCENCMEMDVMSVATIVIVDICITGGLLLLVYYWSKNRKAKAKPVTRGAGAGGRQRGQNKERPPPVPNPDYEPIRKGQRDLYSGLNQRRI
T4 sequence (P04234 22-171, chain 2 of 3): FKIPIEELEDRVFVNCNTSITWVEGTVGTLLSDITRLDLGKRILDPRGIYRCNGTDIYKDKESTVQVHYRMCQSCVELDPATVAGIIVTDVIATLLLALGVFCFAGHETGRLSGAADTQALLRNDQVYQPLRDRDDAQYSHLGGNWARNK
T4 sequence (P09693 23-182, chain 3 of 3): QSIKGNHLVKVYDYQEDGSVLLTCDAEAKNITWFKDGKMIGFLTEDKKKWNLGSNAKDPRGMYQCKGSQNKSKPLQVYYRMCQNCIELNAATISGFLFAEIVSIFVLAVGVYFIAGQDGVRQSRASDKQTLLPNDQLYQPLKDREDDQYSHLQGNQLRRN

T3 sequence (P07766 23-207, chain 1 of 3): as the sequence (P07766 23-207, chain 1 of 3) above
T3 sequence (P04234 22-171, chain 2 of 3): as the sequence (P04234 22-171, chain 2 of 3) above
T3 sequence (P09693 23-182, chain 3 of 3): as the sequence (P09693 23-182, chain 3 of 3) above
T2 sequence (Q9NZD1 whole entry): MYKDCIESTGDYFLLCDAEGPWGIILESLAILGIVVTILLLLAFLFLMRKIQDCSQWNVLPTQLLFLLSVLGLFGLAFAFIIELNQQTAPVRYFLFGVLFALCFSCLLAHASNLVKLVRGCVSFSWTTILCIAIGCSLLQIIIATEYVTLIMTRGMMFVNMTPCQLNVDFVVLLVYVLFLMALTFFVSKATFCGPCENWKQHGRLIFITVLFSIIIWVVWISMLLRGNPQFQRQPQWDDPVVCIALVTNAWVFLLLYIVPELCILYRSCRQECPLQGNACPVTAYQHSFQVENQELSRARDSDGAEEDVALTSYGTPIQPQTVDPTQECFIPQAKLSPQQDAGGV

Row | Binder | EC50, Jurkat-NFAT-Luciferase assay in the presence of MM.1S cells (GPRC5D on MM.1S cells [1]) [nM] | Top RLU, Jurkat-NFAT-Luciferase assay in the presence of MM.1S cells (GPRC5D on MM.1S cells [1]) [RLU] | EC50 (CD3 on Jurkat cells [2]) [nM] | IC50 of T-cell dependent cytotoxicity on MM.1S cells (GPRC5D on MM.1S cells [3]) [nM] | Top (%) target cell killing, MM.1S cells (GPRC5D on MM.1S cells [3]) [%] | EC50 (GPRC5D on MM.1S cells [4]) [nM] | Top signal (GPRC5D on MM.1S cells [4]) [MFI] | Ratio of IC50 (relative to ATG-Bis-40E9), MM.1S cytotoxicity (GPRC5D on MM.1S cells [5]) [ratio] | Ratio of Top cytotoxicity (relative to ATG-Bis-40E9), MM.1S cytotoxicity (GPRC5D on MM.1S cells [5]) [ratio] | Ratio of EC50 (relative to ATG-Bis-40E9), luciferase assay on MM.1S (GPRC5D on MM.1S cells [6]) [ratio] | Ratio of Top RLU (relative to ATG-Bis-40E9), luciferase assay on MM.1S (GPRC5D on MM.1S cells [6]) [ratio] | Ratio of EC50 (relative to ATG-Bis-40E9) (CD3 on Jurkat cells [7]) [ratio] | Ratio of Top MFI (relative to ATG-Bis-40E9) (CD3 on Jurkat cells [7]) [ratio] | Ratio of EC50 (relative to ATG-Bis-40E9) (GPRC5D on MM.1S cells [8]) [ratio] | Ratio of Top MFI (relative to ATG-Bis-40E9) (GPRC5D on MM.1S cells [8]) [ratio] | EC50 (CD20 on DoHH2 cells) [nM] | binding result [9]
1 | B1 | 0.011 | 564 | 74.7 | 0.00063 | 99.2 | 2.43 | 1880 | 1 | 1 | 1 | 1 | 1 | 1 | 1 | 1 |  | 
2 | B2 |  |  |  |  |  |  |  |  |  |  |  |  |  |  |  | 4.05 | binds
3 | B3 |  |  |  |  |  |  |  |  |  |  |  |  |  |  |  | 3.13 | binds
